Experimental data as given in publication doi:10.1101/2024.05.17.594718 (bioRxiv, 2024).

Molecular target: LysP-GFP (Pseudomonas aeruginosa PAO1 LysP fused to GFP-His8) (Pseudomonas aeruginosa strain PAO1, UniProt Q9HVG3)
Assay: GFP thermal shift

B1: nanobody Nb5755 (VHH)
VHH: QVQLQESGGGLVQGGSLRLSCAASGRTFSIYGMAWVRQASGKEREFVAAMPRGGGTTNYADSVKGRFSISRDNAKNTVDLQMNSLKPEDTAVYYCVADRGFTLRLGIQHDYWGQGTQVTVSS
  increase in melting temperature: 20 °C
